Laboratory results: patent US20230201308A1, “TREATMENT OF CORONAVIRUS INFECTION WITH […]” (Eiger Biopharmaceuticals, Inc., priority 2020, published 2023)
Like-named read-outs stand apart in the source and are kept apart here.

Tested on: SARS-CoV-2

B1: pegylated interferon lambda-1a (protein)
chain: MKPTTTGKGCHIGRFKSLSPQELASFKKARDALEESLKLKNWSCSSPVFPGNWDLRLLQVRERPVALEAELALTLKVLEAAAGPALEDVLDQPLHTLHHILSQLQACIQPQPTAGPRPRGRLHHWLHRLQEAPKKESAGCLEASVTFNLFRLLTRDLKYVADGNLSLRTSTHPEST
modifications: PEG
notes: 180 mcg subcutaneous injection
Question: B1 was tested. Which “risk reduction by dominant variant” value (August 2021 to December 2021, Delta predominant) did it give?
Answer: 46%

Question: What about the “risk reduction by dominant variant” value (December 2021 to February 2022, Omicron dominant) of the same molecule?
Answer: 83%

Question: What about the “# events (variant analysis)” value (Full Study, June 2021-February 2022, N 916) of the same molecule?
Answer: 916 (25)

Question: What about the “risk reduction by dominant variant” value (June 2021 to August 2021, Gamma predominant) of the same molecule?
Answer: 25%

Question: And the “HR, all-cause mortality or hospitalization due to COVID-19, Time-to-Event analysis” value (human, in vivo)?
Answer: 0.00

Question: What about the “RR, all-cause mortality or hospitalization due to COVID-19” value (human, in vivo) of the same molecule?
Answer: 0.14

Question: And the “estimated effect across variants” value (human, in vivo)?
Answer: beneficial across all variants

Question: And the “efficacy across SARS-CoV-2 variants” value (viral sequencing on all patients)?
Answer: pan-variant efficacy in all variants tested, including omicron
